Legend:
[1] = target: murine CD47 on murine CD47 positive tumor cells (mouse) (UniProt Q61735); assay: saturation binding by flow cytometry on HT-2 (mouse T cells); range printed beside the two rising curves (mIAP and Cleaved Vel), upper end
[2] = target: murine CD47 on murine CD47 positive tumor cells (mouse) (UniProt Q61735); assay: saturation binding by flow cytometry on HT-2 (mouse T cells); range printed beside the two rising curves (mIAP and Cleaved Vel), lower end
[3] = target: murine CD47 on murine CD47 positive tumor cells (mouse) (UniProt Q61735); assay: saturation binding by flow cytometry on HT-2 (mouse T cells)
[4] = target: T1, Soluble recombinant human CD47-Fc (R&D Systems) (human, UniProt Q08722 19-139); assay: hCD47 ELISA, absorbance at 450 nm against antibody concentration
T1 construct: Bought reagent; also called rhCD47; human CD47 (plate-coated); not shown: Fc part of the bought fusion protein

[5] = target: T1, Soluble recombinant human CD47-Fc (R&D …); assay: saturating ELISA on plates coated with human CD47; column head 'Average EC50 (nM)'
[6] = target: T2, human CD47 expressed on the cell surface (human, UniProt Q08722 19-323); assay: saturating cellular FACS on L450cy lymphoma cells
T2 construct: whole, on cells; also called CD47 on SW780, human red blood cells, HT1080, HCT116, Raji, L450cy and patient blood cells

[7] = target: T2, human CD47 expressed on the cell surface; assay: saturation binding, flow cytometry, SW780 cells
[8] = target: T1, Soluble recombinant human CD47-Fc (R&D …); assay: saturation binding ELISA on rhCD47
[9] = target: T2, human CD47 expressed on the cell surface; assay: saturation binding, flow cytometry, HT1080 cells
[10] = target: T2, human CD47 expressed on the cell surface; assay: saturation binding, flow cytometry, SW780 cells; remark: listed apart in the source
[11] = target: T2, human CD47 expressed on the cell surface; assay: saturation binding, flow cytometry, human red blood cells
[12] = target: T2, human CD47 expressed on the cell surface; assay: saturation binding, flow cytometry, Raji cells
[13] = target: T2, human CD47 expressed on the cell surface; assay: saturation binding, flow cytometry, SW780 cells; remark: listed apart in the source
[14] = target: T2, human CD47 expressed on the cell surface; assay: saturation binding, flow cytometry, human red blood cells; remark: listed apart in the source
[15] = target: T2, human CD47 expressed on the cell surface; assay: saturation binding, flow cytometry, HCT116 cells
[16] = target: T2, human CD47 expressed on the cell surface; assay: saturation binding, flow cytometry, SW780 cells; remark: listed apart in the source
[17] = target: T2, human CD47 expressed on the cell surface; assay: saturation binding, flow cytometry, SW780 cells; SW780 human bladder cancer cells

Sequence of murine CD47 on murine CD47 positive tumor cells (mouse) (Q61735 19-303): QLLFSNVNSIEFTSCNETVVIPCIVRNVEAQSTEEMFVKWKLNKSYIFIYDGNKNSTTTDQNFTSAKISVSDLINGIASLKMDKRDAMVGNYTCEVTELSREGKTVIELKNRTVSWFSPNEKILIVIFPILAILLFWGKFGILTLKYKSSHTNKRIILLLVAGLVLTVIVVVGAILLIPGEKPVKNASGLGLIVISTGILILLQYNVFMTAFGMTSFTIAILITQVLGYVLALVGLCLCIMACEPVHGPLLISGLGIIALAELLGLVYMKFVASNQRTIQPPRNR

Work on mIAP301 (antibody) yielded a Kd [1] of under 15 nM, a Kd [2] of over 7.5 nM and an EC50 (read off the curve) [3] of 10 to 20 nM.

B1: hB6H12.4 (antibody, V domains shown)
VH: EVQLLESGGGLVQPGGSLRLSCAASGFTFSGYGMSWVRQAPGKRLEWVATITSGGTYTYYPDSVKGRFTISRDNSKNTLYLQMNSLRAEDTAIYFCARSLAGNAMDYWGQGTLVTVSS
VL: DIQMTQSPSSLSASVGDRVTLTCRASQTISNYLAWYQQKPGKVPKLLIKFASTLQSGVPSRFSGSGSGSDFTLTISSLQPEDVATYYCQNGHGFPRTFGQGTKLEIKR
notes: also called hvH1/hvK4; antibody 4 (bin A)
For B1, the “EC50 (read off the curve)” value [4] was about 1 nM, the EC50 [5] was 24 nM and the Kd [6] was 0.9 nM.

B2: Ab47 (antibody, V domains shown)
VH: EVQLVESGGGLVQPGGSLRLSCAASGFTFSGYGMSWVRQAPGKGLEWVATITSGGTYTYYPDSVKGRFTISRDNAKNSLYLQMNSLRAEDTAVYYCARSLAGNAMDYWGQGTLVTVSS
VL: EIVLTQSPATLSLSPGERATLSCRASQTISDYLHWYQQKPGQAPRLLIKFASQSISGIPARFSGSGSGTDFTLTISSLEPEDFAVYYCQNGHGFPRTFGQGTKVEIKR
notes: Humanized IgG1; also called alternatively humanized antibody Ab47; humanized IgG1 hB6H12 Ab47
B2 was tested, and the Kd [7] was 6.8 nM, the Kd [8] was 1 nM and the “EC50 (read off the curve)” value [4] was about 1 nM. The EC50 [5] was 16 nM, the Kd [9] was 21 nM and the Kd [10] was 9.6 nM. It also gave a Kd [11] of 12.1 nM, a Kd [12] of 3.3 nM and a Kd [6] of 0.5 nM. The Kd [13] was 8 nM, the Kd [14] was 26.5 nM and the Kd [15] was 7.8 nM.

B3: hB6H12.2 (antibody, V domains shown)
VH: EVQLLESGGGLVQPGGSLRLSCAASGFTFSGYGMSWVRQAPGKRLEWVATITSGGTYTYYPDSVKGRFTISRDNSKNTLYLQMNSLRAEDTAIYFCARSLAGNAMDYWGQGTLVTVSS
VL: EIVMTQSPDFQSVTPKEKVTLTCRASQTISDYLHWYQQKPDQSPKLLIKFASQSISGVPSRFSGSGSGTDFTLTINSLEAEDAATYYCQNGHGFPRTFGQGTKLEIKR
notes: also called hvH1/hvK2; antibody 2 (bin A)
For B3, the EC50 [5] was 30 nM and the Kd [6] was 0.9 nM.

B4: Cleaved Vel-IPV-hB6H12.4 (antibody, V domains shown)
VH: EVQLLESGGGLVQPGGSLRLSCAASGFTFSGYGMSWVRQAPGKRLEWVATITSGGTYTYYPDSVKGRFTISRDNSKNTLYLQMNSLRAEDTAIYFCARSLAGNAMDYWGQGTLVTVSS
VL: DIQMTQSPSSLSASVGDRVTLTCRASQTISNYLAWYQQKPGKVPKLLIKFASTLQSGVPSRFSGSGSGSDFTLTISSLQPEDVATYYCQNGHGFPRTFGQGTKLEIKR
notes: MMP2-cleaved; IgG1
Work on B4 yielded a Kd [16] of 9.2 nM.

B5: hB6H12.17 (antibody, V domains shown)
VH: EVQLVESGGGLVQPGGSLRLSCAASGFTFSGYGMSWVRQAPGKGLEWVATITSGGTYTYYADSVKGRFTISRDNSKNTLYLQINSLRAEDTAVYYCARSLAGNAMDYWGQGTLVTVSS
VL: EIVMTQSPDFQSVTPKEKVTLTCRASQTISDYLHWYQQKPDQSPKLLIKFASQSISGVPSRFSGSGSGTDFTLTINSLEAEDAAVYYCQNGHGFPRTFGQGTKLEIKR
notes: also called hvH5/hvK1; antibody 17 (bin B)
In the case of B5, the EC50 [5] is reported as 43 nM and the Kd [6] is reported as 1 nM.

B6: hB6H12.19 (antibody, V domains shown)
VH: EVQLVESGGGLVQPGGSLRLSCAASGFTFSGYGMSWVRQAPGKGLEWVATITSGGTYTYYADSVKGRFTISRDNSKNTLYLQINSLRAEDTAVYYCARSLAGNAMDYWGQGTLVTVSS
VL: EIVMTQSPDFQSVTPKEKVTLTCRASQTISDYLHWYQQKPDQSPKLLIKFASQSISGVPSRFSGSGSGSDFTLTINSLEAEDAATYYCQNGHGFPRTFGQGTKLEIKR
notes: also called hvH5/hvK3; antibody 19 (bin B)
For B6, the “EC50 (read off the curve)” value [4] was about 3 nM, the EC50 [5] was 55 nM and the Kd [6] was 1.3 nM.

B7: hB6H12.3 G91A (antibody, V domains shown)
VH: EVQLLESGGGLVQPGGSLRLSCAASGFTFSGYGMSWVRQAPGKRLEWVATITSGGTYTYYPDSVKGRFTISRDNSKNTLYLQMNSLRAEDTAIYFCARSLAGNAMDYWGQGTLVTVSS
VL: EIVMTQSPDFQSVTPKEKVTLTCRASQTISDYLHWYQQKPDQSPKLLIKFASQSISGVPSRFSGSGSGSDFTLTINSLEAEDAATYYCQNAHGFPRTFGQGTKLEIKR
notes: IgG1; also called hB6H12.3 (deamidation mutant); hvH1/hvK3 G91A
B7 gave a Kd [17] of 62.3 nM and a Kd [8] of 2.7 nM.

B8: Ab47 G91A (antibody, name in Kabat numbering, V domains shown)
VH: EVQLVESGGGLVQPGGSLRLSCAASGFTFSGYGMSWVRQAPGKGLEWVATITSGGTYTYYPDSVKGRFTISRDNAKNSLYLQMNSLRAEDTAVYYCARSLAGNAMDYWGQGTLVTVSS
VL: EIVLTQSPATLSLSPGERATLSCRASQTISDYLHWYQQKPGQAPRLLIKFASQSISGIPARFSGSGSGTDFTLTISSLEPEDFAVYYCQNAHGFPRTFGQGTKVEIKR
notes: built from the Ab47 light chain variable region with G91A; IgG1; also called Ab47 variant bearing a G91A mutation in LCDR3
For B8, the Kd [7] was 19.8 nM and the Kd [11] was 100 nM.

B9: hB6H12.1 (antibody, V domains shown)
VH: EVQLLESGGGLVQPGGSLRLSCAASGFTFSGYGMSWVRQAPGKRLEWVATITSGGTYTYYPDSVKGRFTISRDNSKNTLYLQMNSLRAEDTAIYFCARSLAGNAMDYWGQGTLVTVSS
VL: EIVMTQSPDFQSVTPKEKVTLTCRASQTISDYLHWYQQKPDQSPKLLIKFASQSISGVPSRFSGSGSGTDFTLTINSLEAEDAAVYYCQNGHGFPRTFGQGTKLEIKR
notes: also called hvH1/hvK1; antibody 1 (bin A)
For B9, the EC50 [5] was 30 nM and the Kd [6] was 0.9 nM.

B10: hB6H12.20 (antibody, V domains shown)
VH: EVQLVESGGGLVQPGGSLRLSCAASGFTFSGYGMSWVRQAPGKGLEWVATITSGGTYTYYADSVKGRFTISRDNSKNTLYLQINSLRAEDTAVYYCARSLAGNAMDYWGQGTLVTVSS
VL: DIQMTQSPSSLSASVGDRVTLTCRASQTISNYLAWYQQKPGKVPKLLIKFASTLQSGVPSRFSGSGSGSDFTLTISSLQPEDVATYYCQNGHGFPRTFGQGTKLEIKR
notes: also called hvH5/hvK4; antibody 20 (bin B)
In the case of B10, the “EC50 (read off the curve)” value [4] is reported as about 4 nM, the EC50 [5] is reported as 56 nM and the Kd [6] is reported as 1.8 nM.

B11: Cleaved Vel-IPV-hB6H12.19 (antibody, V domains shown)
VH: EVQLVESGGGLVQPGGSLRLSCAASGFTFSGYGMSWVRQAPGKGLEWVATITSGGTYTYYADSVKGRFTISRDNSKNTLYLQINSLRAEDTAVYYCARSLAGNAMDYWGQGTLVTVSS
VL: EIVMTQSPDFQSVTPKEKVTLTCRASQTISDYLHWYQQKPDQSPKLLIKFASQSISGVPSRFSGSGSGSDFTLTINSLEAEDAATYYCQNGHGFPRTFGQGTKLEIKR
notes: MMP2-cleaved; IgG1
B11 was tested, and the Kd [16] was 26.6 nM.

B12: hB6H12.18 (antibody, V domains shown)
VH: EVQLVESGGGLVQPGGSLRLSCAASGFTFSGYGMSWVRQAPGKGLEWVATITSGGTYTYYADSVKGRFTISRDNSKNTLYLQINSLRAEDTAVYYCARSLAGNAMDYWGQGTLVTVSS
VL: EIVMTQSPDFQSVTPKEKVTLTCRASQTISDYLHWYQQKPDQSPKLLIKFASQSISGVPSRFSGSGSGTDFTLTINSLEAEDAATYYCQNGHGFPRTFGQGTKLEIKR
notes: also called hvH5/hvK2; antibody 18 (bin B)
B12 gave an EC50 [5] of 38 nM and a Kd [6] of 1.1 nM.

B13: Cleaved Vel-IPV-hB6H12.20 (antibody, V domains shown)
VH: EVQLVESGGGLVQPGGSLRLSCAASGFTFSGYGMSWVRQAPGKGLEWVATITSGGTYTYYADSVKGRFTISRDNSKNTLYLQINSLRAEDTAVYYCARSLAGNAMDYWGQGTLVTVSS
VL: DIQMTQSPSSLSASVGDRVTLTCRASQTISNYLAWYQQKPGKVPKLLIKFASTLQSGVPSRFSGSGSGSDFTLTISSLQPEDVATYYCQNGHGFPRTFGQGTKLEIKR
notes: MMP2-cleaved; IgG1
For B13, the Kd [16] was 30.2 nM.

B14: mB6H12 (antibody, V domains shown)
VH: EVQLVESGGDLVKPGGSLKLSCAASGFTFSGYGMSWVRQTPDKRLEWVATITSGGTYTYYPDSVKGRFTISRDNAKNTLYLQIDSLKSEDTAIYFCARSLAGNAMDYWGQGTSVTVSS
VL: DIVMTQSPATLSVTPGDRVSLSCRASQTISDYLHWYQQKSHESPRLLIKFASQSISGIPSRFSGSGSGSDFTLSINSVEPEDVGVYYCQNGHGFPRTFGGGTKLEIKR
notes: Murine parental antibody; also called murine B6H12; mouse B6H12
B14 gave an EC50 [5] of 37 nM and a Kd [6] of 1.2 nM.

B15: Ab47 bearing the A4B4 coiled coil masking domain (antibody)
VH: GKIAALKQKIAALKYKNAALKKKIAALKQGGGGGPLGVRGGGGSEVQLVESGGGLVQPGGSLRLSCAASGFTFSGYGMSWVRQAPGKGLEWVATITSGGTYTYYPDSVKGRFTISRDNAKNSLYLQMNSLRAEDTAVYYCARSLAGNAMDYWGQGTLVTVSS
VL: GEIAALEQEIAALEKENAALEWEIAALEQGGGGGPLGVRGGGGSEIVLTQSPATLSLSPGERATLSCRASQTISDYLHWYQQKPGQAPRLLIKFASQSISGIPARFSGSGSGTDFTLTISSLEPEDFAVYYCQNGHGFPRTFGQGTKVEIKR
notes: IgG1
B15 was tested, and the Kd [9] was 1180 nM, the Kd [10] was 1680 nM and the Kd [12] was 466 nM. It also gave a Kd [15] of 1120 nM.
